Laboratory results: patent US20250073311A1, “DOSAGE REGIME” (ZEALAND PHARMA A/S, priority 2021, published 2025)
Numbered stars: 1 amine (or outer) side, 2 acyl side, 3 side chain; on linkers, the order of the positions; unused ones are H or OH. Square brackets hold non-standard residues; d marks the D form. Side chains are listed from the residue outwards. * marks the point of attachment. C18 diacid = O=C(O)CCCCCCCCCCCCCCCCC(=O)*; γGlu = O=C(O)[C@H](CCC(=O)[*:2])N[*:1]; Aib = CC(C)(N)C(=O)O

T1: human GLP-2 receptor (hGLP2-R) (human, UniProt O95838)
T1 sequence: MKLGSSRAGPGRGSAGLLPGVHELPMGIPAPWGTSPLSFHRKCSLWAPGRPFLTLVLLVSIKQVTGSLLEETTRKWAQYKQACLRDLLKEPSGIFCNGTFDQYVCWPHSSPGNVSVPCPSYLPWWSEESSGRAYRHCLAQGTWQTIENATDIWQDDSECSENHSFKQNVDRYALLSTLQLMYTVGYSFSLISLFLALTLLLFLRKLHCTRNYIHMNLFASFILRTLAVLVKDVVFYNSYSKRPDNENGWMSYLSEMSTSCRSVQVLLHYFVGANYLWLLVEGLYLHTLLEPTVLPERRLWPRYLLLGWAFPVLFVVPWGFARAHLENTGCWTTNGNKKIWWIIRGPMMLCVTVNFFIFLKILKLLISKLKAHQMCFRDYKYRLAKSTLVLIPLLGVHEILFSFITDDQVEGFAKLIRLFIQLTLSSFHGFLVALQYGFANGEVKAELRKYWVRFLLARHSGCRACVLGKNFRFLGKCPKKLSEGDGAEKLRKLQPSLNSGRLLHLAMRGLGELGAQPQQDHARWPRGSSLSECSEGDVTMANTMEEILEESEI


How the values were obtained:
[1] = molecular target: T1, human GLP-2 receptor (hGLP2-R); test: cell-based or functional assay
[2] = molecular target: human glucagon-like peptide 1 receptor (GLP-1R) (human, UniProt P43220); test: cell-based or functional assay

Binder | EC50 GLP-2 (nM), cAMP AlphaScreen [1] [nM] | EC50 GLP-1 (nM), cAMP AlphaScreen [2] [nM]
H-H[Aib]EGSFTSELATILDK([γGlu-C18 diacid])LAARDFIAWLIEHKITD-OH (SMILES CC[C@H](C)[C@H](NC(=O)[C@H](Cc1ccccc1)NC(=O)[C@H](CC(=O)O)NC(=O)[C@H](CCCNC(=N)N)NC(=O)[C@H](C)NC(=O)[C@H](C)NC(=O)[C@H](CC(C)C)NC(=O)[C@H](CCCCNC(=O)CC[C@H](NC(=O)CCCCCCCCCCCCCCCCC(=O)O)C(=O)O)NC(=O)[C@H](CC(=O)O)NC(=O)[C@H](CC(C)C)NC(=O)[C@@H](NC(=O)[C@@H](NC(=O)[C@H](C)NC(=O)[C@H](CC(C)C)NC(=O)[C@H](CCC(=O)O)NC(=O)[C@H](CO)NC(=O)[C@@H](NC(=O)[C@H](Cc1ccccc1)NC(=O)[C@H](CO)NC(=O)CNC(=O)[C@H](CCC(=O)O)NC(=O)C(C)(C)NC(=O)[C@@H](N)Cc1c[nH]cn1)[C@@H](C)O)[C@@H](C)O)[C@@H](C)CC)C(=O)N[C@@H](C)C(=O)N[C@@H](Cc1c[nH]c2ccccc12)C(=O)N[C@@H](CC(C)C)C(=O)N[C@H](C(=O)N[C@@H](CCC(=O)O)C(=O)N[C@@H](Cc1c[nH]cn1)C(=O)N[C@@H](CCCCN)C(=O)N[C@H](C(=O)N[C@H](C(=O)N[C@@H](CC(=O)O)C(=O)O)[C@@H](C)O)[C@@H](C)CC)[C@@H](C)CC) [Compound 11] | 0.085 | 0.32
H-H[Aib]EGTFTSELATILDGK([γGlu-C18 diacid])AARDFIAWLIEHKITD-OH (SMILES CC[C@H](C)[C@H](NC(=O)[C@H](Cc1ccccc1)NC(=O)[C@H](CC(=O)O)NC(=O)[C@H](CCCNC(=N)N)NC(=O)[C@H](C)NC(=O)[C@H](C)NC(=O)[C@H](CCCCNC(=O)CC[C@H](NC(=O)CCCCCCCCCCCCCCCCC(=O)O)C(=O)O)NC(=O)CNC(=O)[C@H](CC(=O)O)NC(=O)[C@H](CC(C)C)NC(=O)[C@@H](NC(=O)[C@@H](NC(=O)[C@H](C)NC(=O)[C@H](CC(C)C)NC(=O)[C@H](CCC(=O)O)NC(=O)[C@H](CO)NC(=O)[C@@H](NC(=O)[C@H](Cc1ccccc1)NC(=O)[C@@H](NC(=O)CNC(=O)[C@H](CCC(=O)O)NC(=O)C(C)(C)NC(=O)[C@@H](N)Cc1c[nH]cn1)[C@@H](C)O)[C@@H](C)O)[C@@H](C)O)[C@@H](C)CC)C(=O)N[C@@H](C)C(=O)N[C@@H](Cc1c[nH]c2ccccc12)C(=O)N[C@@H](CC(C)C)C(=O)N[C@H](C(=O)N[C@@H](CCC(=O)O)C(=O)N[C@@H](Cc1c[nH]cn1)C(=O)N[C@@H](CCCCN)C(=O)N[C@H](C(=O)N[C@H](C(=O)N[C@@H](CC(=O)O)C(=O)O)[C@@H](C)O)[C@@H](C)CC)[C@@H](C)CC) [Compound 9] | 0.056 | 0.056
H-H[Aib]EGTFSSELATILDK([γGlu-C18 diacid])LAARDFIAWLIEHKITD-OH (SMILES CC[C@H](C)[C@H](NC(=O)[C@H](Cc1ccccc1)NC(=O)[C@H](CC(=O)O)NC(=O)[C@H](CCCNC(=N)N)NC(=O)[C@H](C)NC(=O)[C@H](C)NC(=O)[C@H](CC(C)C)NC(=O)[C@H](CCCCNC(=O)CC[C@H](NC(=O)CCCCCCCCCCCCCCCCC(=O)O)C(=O)O)NC(=O)[C@H](CC(=O)O)NC(=O)[C@H](CC(C)C)NC(=O)[C@@H](NC(=O)[C@@H](NC(=O)[C@H](C)NC(=O)[C@H](CC(C)C)NC(=O)[C@H](CCC(=O)O)NC(=O)[C@H](CO)NC(=O)[C@H](CO)NC(=O)[C@H](Cc1ccccc1)NC(=O)[C@@H](NC(=O)CNC(=O)[C@H](CCC(=O)O)NC(=O)C(C)(C)NC(=O)[C@@H](N)Cc1c[nH]cn1)[C@@H](C)O)[C@@H](C)O)[C@@H](C)CC)C(=O)N[C@@H](C)C(=O)N[C@@H](Cc1c[nH]c2ccccc12)C(=O)N[C@@H](CC(C)C)C(=O)N[C@H](C(=O)N[C@@H](CCC(=O)O)C(=O)N[C@@H](Cc1c[nH]cn1)C(=O)N[C@@H](CCCCN)C(=O)N[C@H](C(=O)N[C@H](C(=O)N[C@@H](CC(=O)O)C(=O)O)[C@@H](C)O)[C@@H](C)CC)[C@@H](C)CC) [Compound 10] | 0.087 | 1.8

Second part, the binder after the results:

EC50 GLP-2 (nM), cAMP AlphaScreen [1] [nM] | EC50 GLP-1 (nM), cAMP AlphaScreen [2] [nM] | Binder
0.086 | 0.57 | H-H[Aib]EGSFTSELATILDK([γGlu-C18 diacid])LAARDFIAWLIAHKITD-OH (SMILES CC[C@H](C)[C@H](NC(=O)[C@H](CC(C)C)NC(=O)[C@H](Cc1c[nH]c2ccccc12)NC(=O)[C@H](C)NC(=O)[C@@H](NC(=O)[C@H](Cc1ccccc1)NC(=O)[C@H](CC(=O)O)NC(=O)[C@H](CCCNC(=N)N)NC(=O)[C@H](C)NC(=O)[C@H](C)NC(=O)[C@H](CC(C)C)NC(=O)[C@H](CCCCNC(=O)CC[C@H](NC(=O)CCCCCCCCCCCCCCCCC(=O)O)C(=O)O)NC(=O)[C@H](CC(=O)O)NC(=O)[C@H](CC(C)C)NC(=O)[C@@H](NC(=O)[C@@H](NC(=O)[C@H](C)NC(=O)[C@H](CC(C)C)NC(=O)[C@H](CCC(=O)O)NC(=O)[C@H](CO)NC(=O)[C@@H](NC(=O)[C@H](Cc1ccccc1)NC(=O)[C@H](CO)NC(=O)CNC(=O)[C@H](CCC(=O)O)NC(=O)C(C)(C)NC(=O)[C@@H](N)Cc1c[nH]cn1)[C@@H](C)O)[C@@H](C)O)[C@@H](C)CC)[C@@H](C)CC)C(=O)N[C@@H](C)C(=O)N[C@@H](Cc1c[nH]cn1)C(=O)N[C@@H](CCCCN)C(=O)N[C@H](C(=O)N[C@H](C(=O)N[C@@H](CC(=O)O)C(=O)O)[C@@H](C)O)[C@@H](C)CC) [Compound 14]
0.099 | 2.2 | H-H[Aib]EGTFSSELATILDK([γGlu-C18 diacid])LAARDFIAWLIAHKITD-OH (SMILES CC[C@H](C)[C@H](NC(=O)[C@H](CC(C)C)NC(=O)[C@H](Cc1c[nH]c2ccccc12)NC(=O)[C@H](C)NC(=O)[C@@H](NC(=O)[C@H](Cc1ccccc1)NC(=O)[C@H](CC(=O)O)NC(=O)[C@H](CCCNC(=N)N)NC(=O)[C@H](C)NC(=O)[C@H](C)NC(=O)[C@H](CC(C)C)NC(=O)[C@H](CCCCNC(=O)CC[C@H](NC(=O)CCCCCCCCCCCCCCCCC(=O)O)C(=O)O)NC(=O)[C@H](CC(=O)O)NC(=O)[C@H](CC(C)C)NC(=O)[C@@H](NC(=O)[C@@H](NC(=O)[C@H](C)NC(=O)[C@H](CC(C)C)NC(=O)[C@H](CCC(=O)O)NC(=O)[C@H](CO)NC(=O)[C@H](CO)NC(=O)[C@H](Cc1ccccc1)NC(=O)[C@@H](NC(=O)CNC(=O)[C@H](CCC(=O)O)NC(=O)C(C)(C)NC(=O)[C@@H](N)Cc1c[nH]cn1)[C@@H](C)O)[C@@H](C)O)[C@@H](C)CC)[C@@H](C)CC)C(=O)N[C@@H](C)C(=O)N[C@@H](Cc1c[nH]cn1)C(=O)N[C@@H](CCCCN)C(=O)N[C@H](C(=O)N[C@H](C(=O)N[C@@H](CC(=O)O)C(=O)O)[C@@H](C)O)[C@@H](C)CC) [Compound 13]
0.11 | 0.14 | H-H[Aib]EGTFTSELATILDK([γGlu-C18 diacid])LAARDFIAWLIEHKITD-OH (SMILES CC[C@H](C)[C@H](NC(=O)[C@H](Cc1ccccc1)NC(=O)[C@H](CC(=O)O)NC(=O)[C@H](CCCNC(=N)N)NC(=O)[C@H](C)NC(=O)[C@H](C)NC(=O)[C@H](CC(C)C)NC(=O)[C@H](CCCCNC(=O)CC[C@H](NC(=O)CCCCCCCCCCCCCCCCC(=O)O)C(=O)O)NC(=O)[C@H](CC(=O)O)NC(=O)[C@H](CC(C)C)NC(=O)[C@@H](NC(=O)[C@@H](NC(=O)[C@H](C)NC(=O)[C@H](CC(C)C)NC(=O)[C@H](CCC(=O)O)NC(=O)[C@H](CO)NC(=O)[C@@H](NC(=O)[C@H](Cc1ccccc1)NC(=O)[C@@H](NC(=O)CNC(=O)[C@H](CCC(=O)O)NC(=O)C(C)(C)NC(=O)[C@@H](N)Cc1c[nH]cn1)[C@@H](C)O)[C@@H](C)O)[C@@H](C)O)[C@@H](C)CC)C(=O)N[C@@H](C)C(=O)N[C@@H](Cc1c[nH]c2ccccc12)C(=O)N[C@@H](CC(C)C)C(=O)N[C@H](C(=O)N[C@@H](CCC(=O)O)C(=O)N[C@@H](Cc1c[nH]cn1)C(=O)N[C@@H](CCCCN)C(=O)N[C@H](C(=O)N[C@H](C(=O)N[C@@H](CC(=O)O)C(=O)O)[C@@H](C)O)[C@@H](C)CC)[C@@H](C)CC) [Compound 12]
